Results taken from patent US11597951B2 (Lygos, Inc., priority 2018, dated 2023).
Positions count from the first letter of the chain named. Names and notes keep the numbering of the source.

B1: EHD3 (E124V): S. cerevisiae EHD3 with point mutation E124V, malonyl-CoA hydrolase (protein, UniProt P28817 1-500, looked up, variant E124V)
Small ribosomal subunit …: MLRNTLKCAQLSSKYGFKTTTRTFMTTQPQLNVTDAPPVLFTVQDTARVITLNRPKKLNALNAEMSESMFKTLNEYAKSDTTNLVILKSSNRPRSFCAGGDVATVAIFNFNKEFAKSIKFFTDVYSLNFQIATYLKPIVTFMDGITMGGGVGLSIHTPFRIATENTKWAMPEMDIGFFPDVGSTFALPRIVTLANSNSQMALYLCLTGEVVTGADAYMLGLASHYVSSENLDALQKRLGEISPPFNNDPQSAYFFGMVNESIDEFVSPLPKDYVFKYSNEKLNVIEACFNLSKNGTIEDIMNNLRQYEGSAEGKAFAQEIKTKLLTKSPSSLQIALRLVQENSRDHIESAIKRDLYTAANMCMNQDSLVEFSEATKHKLIDKQRVPYPWTKKEQLFVSQLTSITSPKPSLPMSLLRNTSNVTWTQYPYHSKYQLPTEQEIAAYIEKRTNDDTGAKVTEREVLNHFANVIPSRRGKLGIQSLCKIVCERKCEEVNDGLRWK
B2: EHD3 (E124A): S. cerevisiae EHD3 with point mutation E124A, malonyl-CoA hydrolase (protein, UniProt P28817 1-500, looked up, variant E124A)
Small ribosomal subunit …: B1 Small ribosomal subunit … with V124A
B3: EHD3 (E124A/E308V): S. cerevisiae EHD3 with mutations E124A and E308V, malonyl-CoA hydrolase (protein, UniProt P28817 1-500, looked up, variant E124A E308V)
Small ribosomal subunit …: B1 Small ribosomal subunit … with V124A, E308V

These molecules were tested on E. coli strain K12 (assay: In vivo production of malonate in E. coli using S. cerevisiae EHD3 malonyl-CoA hydrolases). Conditions: E. coli K12, 48 hours.
Format: cell-based
Procedure: This example describes the host cells and culture conditions resulting in the in vivo production of malonate using a heterologous EHD3 malonyl-CoA hydrolase in an E. coli host cell. E. coli strain K12 was transformed with vectors containing wild-type EHD3, EHD3 (E124A), […], EHD3 (E124S), EHD3 (E124A, E308V) or an empty vector negative control. Transformants were streaked on LB agar plates (Cm^50, 2% glucose). Following overnight growth at 37° C., individual colonies were inoculated into 3 ml LB (Cm^50, 2% glucose) in a 48-well plate. Cultures were incubated on a plate shaker at 37° C. for 6 hours, at which point each culture was inoculated 1% v/v into M9 minimal medium supplemented with Cm^50 and a mixed carbon source (0.5% glycerol, 0.05% glucose, 0.2% lactose) in a 48-well plate. Cultures were incubated on a plate shaker at 30° C., and a 500 μL sample of the fermentation broth was removed for analysis after 48 hours incubation.
Samples were centrifuged (×6000 g, 1 min) and the supernatant analyzed for malonate quantification. Chemical standards were prepared in […] of water. The separation of malonate was conducted on a Shimadzu Prominence XR UPLC connected to a refractive index detector and UV detector monitoring 210 nm. Product separation was performed on a Bio-Rad Fermentation Monitoring column. The UPLC was programmed to run isocratically using 5 mM H2504 as the eluant with a flow rate of 600 μL per minute. 10 μL were injected per sample, and the sample plate temperature was held at 4° C. Malonate standards began eluting at […]. […] Malonate concentrations (mg/1) were calculated by comparison to a standard curve prepared from authentic malonate.

Molecule	malonate production relative to wild-type EHD3
B1	decreased production of malonate
B2	only a minor increase

Same assay, conditions: E. coli K12, M9 minimal medium, 30° C., 48 hours; mean±std dev; n=3

Molecule	Malonate Concentration
Wild-type EHD3: wild type S. cerevisiae EHD3 acyl-CoA hydrolase, SEQ ID NO:1	6.0 ± 0.2 mg/L
B1	0.28 ± 0.03 mg/L
B2	7.6 ± 0.7 mg/L
B3	8.35 ± 2.5 mg/L
